Values quoted from earlier work in patent US20170037111A1, “Novel peptides and combination of peptides for use in immunotherapy against ovarian cancer and other cancers” (immatics biotechnologies GmbH, priority 2015, published 2017).

Test system: ovarian cancer
Conditions: clinical studies, phase as stated

B1: abagovomab: anti-CA-125 antibody (antibody, chains of the INN, looked up, V domains shown)
VH: QVKLQESGAELARPGASVKLSCKASGYTFTNYWMQWVKQRPGQGLDWIGAIYPGDGNTRYTHKFKGKATLTADKSSSTAYMQLSSLASEDSGVYYCARGEGNYAWFAYWGQGTTVTVSS
VL: DIELTQSPASLSASVGETVTITCQASENIYSYLAWHQQKQGKSPQLLVYNAKTLAGGVSSRFSGSGSGTHFSLKIKSLQPEDFGIYYCQHHYGILPTFGGGTKLEIK
  clinical effect in ovarian cancer patients: promising results
